Assay results as given in publication PMC2665906, “Structure of mouse IP-10, a chemokine” (Acta Crystallographica Section D: Biological Crystallography, 2008).

Molecular target: the molecule itself
Assay: crystal structure; hanging-drop vapour diffusion; protein 10 mg/ml in 50 mM Tris-HCl pH 8.0; 0.1 M Tris-HCl pH 8.0, 0.2 M CaCl2, 35% PEG 3350, 289 K; space group C2, four molecules in the asymmetric unit; 2.5 Å

B1: Mouse interferon-γ-inducible protein (IP-10) (natural protein, UniProt P17515 22-98, looked up)
chain: IPLARTVRCNCIHIDDGPVRMRAIGKLEIIPASLSCPRVEIIATMKKNDEQRCLNPESKTIKNLMKAFSQKRSKRAP
notes: Mouse IP-10 (CXCL10), cloned and expressed as described by Campanella et al. (2003) with some modifications; The model holds residues 1-68 (A), 1-67 (B), 4-68 (C) and 4-67 (D); No tag is mentioned; C-terminal residues beyond 67/68 were not seen in the electron density; also called mouse IP-10; CXCL10
stoichiometry N: 4
